# Source: the nanobody polyreactivity screen of Harvey et al. (2022)
# Assay: yeast display, Sf9 membrane polyspecificity reagent, FACS + sequencing; frameworks hold sequencing errors
# How it was run: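 Polyreactivity labels are assigned by the sorting gate from which each nanobody was recovered. The gates were low and high (top ~1%), set on anti-HA fluorescence for expression and streptavidin fluorescence for reagent binding. Before sorting, galactose-induced (36–48 hours) yeast display cells were stained for 1 hour at 4 °C with 10% biotinylated, detergent-solubilized Sf9 membrane reagent.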
row,Sequence,polyreactivity (PSR sort gate)
1,QVQLVESGGGLDQAGGSLRLSCAASGSTIHRNAMGWYRQAPGKERELVAAITSGGSTNYADSVKGRFTISRDNAKNTVYLQMNSLKPEDTAVYYCDKDYRHYNRGWYDYWGQGTQVTVSS,low polyreactivity
2,QVQLVESGGGLVQAGGSLRLSCAASGSIFRFYVMGWYRQAPGKERELVAAISIGGSTNYADSVKGRFTISRDNAKNTVFLQMNSLKPEDTAVYYCAADYWYGAGMPHGTEFDYWGQGTQVTVSS,low polyreactivity
3,QVQLVESGGGLVQAGGSLRLSCAASGRTFLYNAMGWYRQAPGKERELVAAISWSGGSTYYADSVKGRFTISRDNAKNTVYLQMIILKPEDTAVYYCAATGRRSGFYYWGQGTQVTVSS,high polyreactivity
4,QVQLVESGGGLVQAGGSLRLSCSASGIIFYFYAMGWYRQAPGKERELVAAISDDGVSTDYADSVKGRFTISRDNAKNTVYLQMNSLKPEDTAVFYCNARYSGYLRLDYWGQGTQVTVSS,low polyreactivity
5,QVQLQESAGGLVQAGGSLRLRCSASGYISCDASMGWYRQAPRKERELAASITKGSSTNYADSVKGRFTIRDNAKNSVYLQMNSLKPEDTAVFYCAVTYPYWGDYTYWGQGTQVTVSS,low polyreactivity
6,QVQLVESGGGLVQAGGSLRLSCAASGSIIARYAMGWYRQSPGKERELVAAITCSATSTYYADSVKGRFTISRDYAKNTVYLQLNSLKPEDTAVYYWNAGASYFLVISQSRRDYWGQGTQVTVSS,low polyreactivity
7,QVQLVESGGGLVQAGGSLSLICAASGSIFYEYAMGWYRQAPGKEREFVAAISSSGGSTYYADSVKGRFTISRDNAKNTVYLQMNSLKPEYTAVYYCNAQVGGVSIEYDYWGQGTQVTVSS,low polyreactivity
8,QVQLVEAGGGLVQAGGSLRLSCAACGSIFISYAMGWYRQAPGKERELVAAISSGGSTNYADSVKGRFTISRDNAKNTVYLQMNSLTPEDTAVYYCAADGWLWSFTGDGWWFDYWGQGTQVTVSS,low polyreactivity
9,QLQLEESGGGLVQAGGSLRLSCAASGRIFNYYAMGWYRPAPGKEKELVAAISTVCGSTYYADSVKGRFTISRDKAKNTVYIQMHSLKPEDTSVYYCAAYQYYDFSYSYDYWGQGTQVTVSS,low polyreactivity
10,QVQLVESGGGLVQAGGSLRLSCAASGSTFRGYAMGWYRQAPGKEREFVAAISRRGGTTYYADSVKGRFTISRDNAKNTVYLQMNSLKPEDTAVYYCNKVYYQHYLAFDYWGQGTQVTVSS,high polyreactivity
11,QVQLVESGGGLVQAGGSLRLSCAASGSIFPGNAMGWYRQAPGKERELVASINWSGGSTYYADSVKGRFTISRDNANNTVYLQMNSLKPEDTAVYYCNADPGYYDYDYWGQGTQVTVSS,low polyreactivity
12,QVQLVESGGGLVQAGGTLRLSCAASGRIFGYNAMGWYRQAPGKERELVAVISTSGTIRYYADSVKGRFTISRVNAKNTVYLQMKSLKPEDTAVYYCAARYYQRANGFGYWGQGTQVTVSS,low polyreactivity
13,QVQLVESGGGLVQAGGSLRLSCAASGRTFGWYAMGWYRQAPGKERELVAAINNSGDITYYADSVKGRFTISRDNAKNTVYVQMNSLKPEDTAVYYCAATAGYYGYPSEYDYWGQGTQVTVSS,low polyreactivity
14,QVQLLESGGGLVQAGGCLRLSCAASGFTFYGYARGWYRQAPGIERELVAGIAKCGTRTYYADSLKGRFTISRDNAENTVFFQMNSLKPEDTAVYYCAARLRRGLTATWYYYWGQGSQVTVSS,high polyreactivity
15,QVQLVESGGGLVQAGGSLRLSCAASGSISGGYAMGWYRQAPGKERELVAVIDSGGSTYYADSVKGRFTISRDNAKNTVYLQMNSLKPEDTAVYYCNADYSSQDNFDYWGQGTQVTVSS,low polyreactivity
16,QVQLVESGGGLVQAGGSLRLSCAASGSSFDWNAMGWYRQAPGKERELVASITGSGGGTNYADSVKGRFTISRDNAKNTVYLQMNSLKPEDTAVYYCNADGLNFDGHEYWGQGTQVTVSS,low polyreactivity
17,QVQLVESGGGLVQAGGSLRLSCAASGYIFFRYAMGWYRQAPGKERELVAAINSSGDSTYADSVKGRFTISRDNAKNTVYLQMNSLKPEDTAVYYCNKDAPLFHDIIIDMDYWGQGTQVTVSS,low polyreactivity
18,QVQLVESGGGLDQAGGSLRLSCAASGFTFDENAMGSYRQAPGINYSGASTYYADSVKGRFTISRDNAKNTVYLQMNSLKPEDTAVYYCAAEVVAQMNYWGQGTQVTVSW,low polyreactivity
19,QVQLVESGGGLVQAGGSLRLSCAASGITFVGNDMGWYRQAPGKERELVATISSSGTRTYYADSVKGRFTISRDNAKNTVYLLMNSLKPEDTAVYYCAARWRSYITYWFDYWGQGTQVTVSS,low polyreactivity
20,QDQLVESGGGLVQAGGSLRLICAASGRTFWAYAMGWYRQAPGKERELVAAISVSGGRTYYADSVKGRFTISRDNAKNTVYLQMNSLKPEDTAVYYCNKRYLKSYEYYWGQGTHVTVSS,high polyreactivity
21,QVQLVESGGGLVQAGGSLRLSCVASGLTQPSAIGWYRHAPGKERELVPRISWRGASTYYADSVKGRFTISRDTAKNNFYLQINSLKPEDTAVYYCAARSTIQRRGYYGYRVGRSEYGYWGQGTQVTVSS,low polyreactivity
22,QVQLVESGGGLVQAGGSLRLSCAASGRISPKNAMGWNTQAPGKERELVATIRKIGGRTYYADSVKGRFTISRDNAKNTVYLQMNSLKPEDTAVYYCATDFAPSYYPDRFDYWGQGTQVTVSS,low polyreactivity

row,Sequence,polyreactivity (PSR sort gate)
1,QVQLVESGGGLVQAGGSLRLSCAASASIFWYNSMGWYRQAPGKEREFVDSISGSGTSTYADSVKGRFTISRDNAKNTVYLQMNSLKPEDTAVYYCIAYYEYSWLYSNWLYGKYDYWGQGTQVTVSS,low polyreactivity
2,QVQLVESGGGLVQAGGSLRLICAASGFTFGYNDMGWYRQAPGKERELVATITRSAGRTYYADSVKGRFTISRDNAKNTVYLQMNSLKPEDTAVYYCASSYWDTEPGYREYDYWGQGTQVTVSS,low polyreactivity
3,QVQLVESGGGLVQEGGRLRLSCAASGRIFWDNDMGWYRQAPGKERELVAAISRRGGSTSYADSVKGRFTISRDNAKNTVYLQMNSLKPEDTAVFYCNVRTRWTRVRRYDYWGQVTQVTVSS,high polyreactivity
4,QVQLVESGGGLVQAGGSLSLSCAATGRIFDGNVMGWYRQAPGKERELVAAISSGDSTNYADSVKGRFTISRDNAKNTVYLQRNSLKTEDTAVYDCNRTPNSGGYDRFYGGDFYYWGQGTQVTVSS,low polyreactivity
5,QVQLVESGGGLVQAGGSLRLSCAASGIIFAWYAMGWYRQAPGKERELVAAISWSGGSTYYADSVKGRFTISRDNAKNTVYLQMNSLKPEDTAVYYCAADSDYGGYDYWGQGTQVTVSS,high polyreactivity
6,QVQLVESGGGLVQAGGSLRLSCAASGLFARNAMGWYRQAPGKERELVAAINRSGGSTYYADSVKGRFTISRDNAKNTVYLQMNSLKPEDTAVYYCNKAFTHTKYLSPIAYEYGYWGQGTQVTVSS,low polyreactivity
7,QVQLVESGGGLVQAGGSLRLSCAASGSISNVYDMGWYRQAPGKERELVATISRTGDSTYYADSVKGRFTISRDNAKNTVYLQMNSLKPEDTAVYYCAARFYWWGLGDDYWGQGTQVTVSS,high polyreactivity
8,QVQLVESGGGLVQAGGSLRLSCAASGFTFSTYAMGWYRQAPGKERELVAAISSGDSTYADSVKGRFTISRDNAKNTVYLQMNSLKPEDTAVYYCAAYVSVPYRNYYYWGQGTQVTVSS,high polyreactivity
9,QVQLVESGGGLVQAGGSLRLSCAASGRTFHKYAMGWYRQAPGKEWELVAAISNGGRTYYADSVKGRFTISRDNAKNTVYLQMNSLKPEDTAVYYCNADRTWKGRQYDYWGQGTQVTVSS,high polyreactivity
10,QDQLVETGGGLVQAGCSLRLSCAASGSIFTGYTMGWYRQAPGNEREFVAAIRATGGSTYYADSVKGRFTISRDNAKNTVYLQMNSLKPEDTAVFYCAVRSGGGSVRKRYGYWGQGTQVTVSS,high polyreactivity
11,QVQLVESGGGLVQAGGSLRLSCAASGRTIGSNVMGWYRQAPGKERELVAAITYSGVSTYADSVKGRFTISRDNAKNTVYLQINSLKPEDTAVYYCNAYPTTYYQQYDYWGQGTQVTVSS,low polyreactivity
12,QVQLVESGGGLVQAGGSLRLSCAASGSILHPNGMGWYRQATGKERELVAAITINGDSTYYADSVKGRFTISRDNAKNTVYLQMNCLKPEDTAVYYCAVDGWPTGWYYYWGHGTQVTVSS,low polyreactivity
13,QVQLVESGGGLVQAGGSLRLSCAASGRIFSNYAMGWYRQAPGKERELVAAISSSGGRTYYADSVKGRFTISRDNAKNTVYLQMNSLKPEDTAVYYCARRHTGTKFAFYYWGQGTQVTVSS,high polyreactivity
14,QVQLVESGGGLVQAGGSLRVSCAASGSTFRRNNMGWYRQAPGKERELVAGISSSGGSTYYADSVKGRFTISRDNAKNTVYLQMNSLKPEDTAVYYCDARFYVSYVGYNYWGQGTQVTVSS,high polyreactivity
15,QVQLVESGGGLVQAGGSLRLSCAASGFTLTLYAMGCYRQSPGKERELVAAISGNGGRTYYADSVKGRFTISRDNAKNTVYLQMNSLKPEDTAVYYCAARYTRSPSDYSTRKFGYGYWGQGTQVTVSS,high polyreactivity
16,QVQLVESGGGLVQAGGSLRLSCAASGSTFYGYAMGWYRQAPGKERELVAAITRSGGSTYYADSVKGRFTISRDNAKNTVYLQMNSLKPEDTEVYYCNKYGYKGGVGYDYWGQGTQVTVSS,high polyreactivity
17,RVQLQESGGGLVQAGGSLRLSCAASGTIFIRGDMGWYRQAPGKEREFVATIDTGSNTYYADSEKGRFTISRDNATNAVYLHMNCLKPGDTAFYYCVVDYQLSGRLRYWGQGTQVTLSS,low polyreactivity
18,QVHLVESGGGLVQAGGSLSLSCAASGRNFRAYAMGWYRQAPGKETEFVAAISRSGGSTYYADSVKGRFTISRDYAKNTVYLQMHSLKPVDTAVYYCAARVRYPYRYYYWGQGTQVTVSS,high polyreactivity
19,QVQLVESGGGLVQAGGSLRLSCAASGRIFRYYAMGWYRQAPGKERELVAAISSGGRTYYADSVKGRFPISRDNEKNTVYLQMNSLKPEDTAVYYCNTYTYAGYNYWGQGTQVTVSS,high polyreactivity
20,QVQLVESRGGLVQAGGSLRLSCAASGRTFGIYTMGWYRQAPGKERKLVAAISKRGSSTYYADSVKGRFTISRDNANNTVYLQMNSLKPEDTAVYYCAATRRYRYNWGQGSQVTVSS,high polyreactivity
21,QVQLVESGGGLVQAGGSLRLTCAASGSIFSHYAMGWYRQATGKERELVAAITYGGGSTYYADSVKGRFTISRDIAMNTVYLQMNSLKPDDTAVYYCAKEFKYWGYPYDYWGQGTQVTVSS,low polyreactivity
